# Laboratory results as given in publication PMC5750232, “RAD54 N-terminal domain is a DNA sensor that couples ATP hydrolysis with branch migration of Holliday junctions” (Nature Communications, 2018).
# Where a chain is given by its changes, count along the chain named.
# T1: RAD54 1-142 (NTD) (human, UniProt Q92698 1-142)
# T1 sequence: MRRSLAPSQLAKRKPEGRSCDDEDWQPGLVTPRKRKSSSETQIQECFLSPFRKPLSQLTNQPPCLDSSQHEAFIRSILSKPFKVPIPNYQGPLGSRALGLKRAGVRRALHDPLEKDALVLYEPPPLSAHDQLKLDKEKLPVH
# T2: RAD54 156-747 (human, UniProt Q92698 156-747)
# T2 sequence: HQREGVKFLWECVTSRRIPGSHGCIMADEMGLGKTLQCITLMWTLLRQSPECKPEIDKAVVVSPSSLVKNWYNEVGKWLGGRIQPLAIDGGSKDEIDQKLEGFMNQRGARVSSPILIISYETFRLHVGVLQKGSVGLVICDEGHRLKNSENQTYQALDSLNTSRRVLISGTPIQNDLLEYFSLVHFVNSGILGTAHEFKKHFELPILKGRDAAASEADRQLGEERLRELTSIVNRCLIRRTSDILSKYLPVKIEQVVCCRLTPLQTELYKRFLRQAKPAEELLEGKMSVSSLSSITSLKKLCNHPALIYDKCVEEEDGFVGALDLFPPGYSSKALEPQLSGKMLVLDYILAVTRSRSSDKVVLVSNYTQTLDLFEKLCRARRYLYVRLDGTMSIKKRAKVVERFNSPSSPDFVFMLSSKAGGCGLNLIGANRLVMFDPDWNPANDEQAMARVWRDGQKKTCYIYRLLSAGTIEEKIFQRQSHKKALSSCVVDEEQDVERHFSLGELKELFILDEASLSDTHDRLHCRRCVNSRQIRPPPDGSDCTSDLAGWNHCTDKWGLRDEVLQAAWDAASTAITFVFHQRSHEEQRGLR
# B1: RAD54_(1–142) NTD (domain or fragment, human, UniProt Q92698 1-142, looked up)
# chain: T1 sequence
# notes: cloned in pETHSUL; Sumo-His tag cleaved off by Sumo hydrolase; also called RAD54 NTD; source: E. coli Rosetta 2 (DE3), purified (HiTrap Ni2+, Sephacryl S-200 HR, Resource S)
# B2: RAD54_(1–142) ^33AAAA36 (domain or fragment, human, UniProt Q92698 1-142, looked up)
# chain: T1 sequence with R33A, K34A, R35A, K36A
# notes: source: E. coli Rosetta 2 (DE3), purified (HiTrap Ni2+, Sephacryl S-200 HR, Resource S)
# B3: RAD54_(1–142) ^S49E (domain or fragment, human, UniProt Q92698 1-142, looked up)
# chain: T1 sequence with S49E
# notes: as for B2
# B4: X-junction (174/175/176/177) (structured_DNA)
# DNA 1: GACGCTGCCGAATTCTACCAGTGCCTTGCTAGGACATCTTTGCCCACCTGCAGGTTCACCC
# DNA 2: TGGGTGAACCTGCAGGTGGGCAAAGATGTCCTAGCAATGTAATCGTCAAGCTTTATGCCGTT
# DNA 3: CAACGGCATAAAGCTTGACGATTACATTGCTAGGACATGCTGTCTAGAGGATCCGACTATCGA
# DNA 4: ATCGATAGTCGGATCCTCTAGACAGCATGTCCTAGCAAGGCACTGGTAGAATTCGGCAGCGT
# B5: non-mobile PX junction (174/175/176/181) (structured_DNA)
# DNA 1: B4 DNA 1
# DNA 2: B4 DNA 2
# DNA 3: B4 DNA 3
# DNA 4: TCGATAGTCGGATCCTCTAGACAGC
# What was measured:
# [1] = molecular target: T1, RAD54 1-142 (NTD); test: competition EMSA; details: vs 30 nM 32P-PX junction, 300 nM protein, 5 mM Mg2+, 2 mM ATP, 25 mM Tris-acetate pH 7.5, 5 mM Mg acetate, 100 ug/ml BSA, 2 mM DTT, 10% glycerol, 4 C, 45 min, 30 nM PX junction, 6% native PAGE in 0.25x TBE, scale: fold excess, PX complexes stable at 150-200-fold excess of ss- or dsDNA
# [2] = molecular target: T2, RAD54 156-747; test: competition EMSA; details: vs 30 nM 32P-PX junction, 100 nM protein, 5 mM Mg2+, 2 mM ATP, 25 mM Tris-acetate pH 7.5, 5 mM Mg acetate, 100 ug/ml BSA, 2 mM DTT, 10% glycerol, 4 C, 45 min, 30 nM PX junction, 6% native PAGE in 0.25x TBE, scale: fold excess of competitor giving 50% dissociation of PX complexes
# [3] = molecular target: the molecule itself; test: cross-linking; BMH (25 µM) cross-linking of the protein (1.2 µM) without DNA; 20 mM HEPES-KOH pH 7.5, 5 mM MgCl2, 5 mM EDTA, 40 mM KCl, 25 °C; 15% SDS-PAGE, silver staining
# [4] = molecular target: T1, RAD54 1-142 (NTD); test: competition EMSA; vs 30 nM 32P-PX junction; 300 nM protein; 5 mM Mg2+, 2 mM ATP; 25 mM Tris-acetate pH 7.5, 5 mM Mg acetate, 100 ug/ml BSA, 2 mM DTT, 2 mM ATP, 10% glycerol, 4 C, 45 min; 30 nM PX junction; 6% native PAGE in 0.25x TBE; details: protein: recombinant; tags: Sumo-His, cleaved; four-way junction, 4 strands
# [5] = molecular target: T2, RAD54 156-747; test: EMSA; 100 nM protein; 5 mM Mg2+, 2 mM ATP; 25 mM Tris-acetate pH 7.5, 5 mM Mg acetate, 100 ug/ml BSA, 2 mM DTT, 2 mM ATP, 10% glycerol, 4 C, 45 min; 30 nM PX junction; 6% native PAGE in 0.25x TBE; details: protein: recombinant; tags: Sumo-His, cleaved; partial X junction with one ssDNA arm, 4 strands
# [6] = molecular target: T1, RAD54 1-142 (NTD); test: EMSA; distinct complexes from 0.1 uM protein; 5 mM Mg2+, 2 mM ATP; 25 mM Tris-acetate pH 7.5, 5 mM Mg acetate, 100 ug/ml BSA, 2 mM DTT, 2 mM ATP, 10% glycerol, 4 C, 45 min; 30 nM PX junction; 6% native PAGE in 0.25x TBE; details: protein: recombinant; tags: Sumo-His, cleaved; partial X junction with one ssDNA arm, 4 strands
molecule,measurement,setting,value
ssDNA (oligo 2),binding signal,[1],> 150
same,binding signal,[2],4
dsDNA (oligos 1/2),binding signal,[1],> 150
B1,stoichiometry N,[3],2
B2,stoichiometry N,[3],2
B3,stoichiometry N,[3],2
B4,binding signal,[4],~6 fold preference for PX junction over HJ (X-junction)
B5,binding result,[5],binds
same,binding result,[6],binds
